In patent publication US7223850 (RIGEL PHARMACEUTICALS, dated 2007):

Target: T1, HA-tagged RIP (UniProt Q13546 1-671, limits assumed)
T1 construct: also called HA-RIP; not shown: HA tag
T1 sequence (looked up): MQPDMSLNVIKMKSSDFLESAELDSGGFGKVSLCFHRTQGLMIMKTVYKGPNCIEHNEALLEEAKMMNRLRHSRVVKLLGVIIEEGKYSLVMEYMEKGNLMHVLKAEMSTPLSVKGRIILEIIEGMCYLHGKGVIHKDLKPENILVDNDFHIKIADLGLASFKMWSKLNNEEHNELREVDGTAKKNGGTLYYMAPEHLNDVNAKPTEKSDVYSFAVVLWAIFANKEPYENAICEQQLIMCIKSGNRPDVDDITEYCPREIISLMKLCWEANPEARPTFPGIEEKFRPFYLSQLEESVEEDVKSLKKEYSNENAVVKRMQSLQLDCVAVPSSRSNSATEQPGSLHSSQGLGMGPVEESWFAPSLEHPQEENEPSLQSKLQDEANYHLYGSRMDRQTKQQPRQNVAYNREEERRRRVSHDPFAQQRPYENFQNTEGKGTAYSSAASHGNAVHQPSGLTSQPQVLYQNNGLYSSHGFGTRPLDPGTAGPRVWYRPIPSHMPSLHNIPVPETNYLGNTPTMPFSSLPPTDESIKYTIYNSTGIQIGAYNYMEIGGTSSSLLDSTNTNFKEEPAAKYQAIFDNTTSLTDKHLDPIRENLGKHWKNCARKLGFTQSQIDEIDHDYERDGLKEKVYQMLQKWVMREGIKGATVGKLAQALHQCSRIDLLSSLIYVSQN
Test: co-immunoprecipitation, HA-RIP and Flag-Apop3 mutant co-transfected in Phoenix-A (293 T) cells, anti-Flag immunoblot

B1: Flag-tagged Apop3(287-518) (other)
chain: FQMVENNMNAAVSTVKDFLSQLKSSNRRFSIPESGQGGTEMDGFRRTIENQHSRNDVMVSEWLNKLNLEEPPSSVPKKCPSLTKRSRAQEEQVPQAWTAGTSSDSMAQPPQTPETSTFRNQMPSPTSTGTPSPGPRGNQGAERQGMNWSCRTPEPNPVTGRPLVNIYNCSGVQVGDNNYLTMQQTTALPTWGLAPSGKGRGLQHPPPVGSQEGPKDPEAWSRPQGWYNHSGK
notes: not shown: Flag tag
**Q.** Does B1 bind?
**A.** no binding

B2: Flag-tagged Apop3(1-196) (enzyme)
chain: MSCVKLWPSGAPAPLVSIEELENQELVGKDGFGTVFRAQHRKWGYDVAVKIVNSKAISREVKAMASLDNEFVLRLEGVIEKVNWDQDPKPALVTKFMENGSLSGLLQSQCPRPWPLLCRLLKEVVLGMFYLHDQNPVLLHRDLKPSNVLPDPELHVKLADFGLSTFQGGSQSGTGSGEPGGTLGYLAPELFVNVNR
notes: not shown: Flag tag
**Q.** Does B2 bind?
**A.** no binding

B3: Flag-tagged Apop3(1-251) (enzyme)
chain: MSCVKLWPSGAPAPLVSIEELENQELVGKDGFGTVFRAQHRKWGYDVAVKIVNSKAISREVKAMASLDNEFVLRLEGVIEKVNWDQDPKPALVTKFMENGSLSGLLQSQCPRPWPLLCRLLKEVVLGMFYLHDQNPVLLHRDLKPSNVLPDPELHVKLADFGLSTFQGGSQSGTGSGEPGGTLGYLAPELFVNVNRKASTASDVYSFGILMWAVLAGREVELPTEPSLVYEAVCNRQNRPSLAELPQAGPE
notes: not shown: Flag tag
**Q.** Does B3 bind?
**A.** no binding
